This note sets out measurements from the Immune Epitope Database (IEDB).

Experiment [1] has as its target HLA-A*24:02. The experiment in a line: IEDB peptide-MHC binding, purified MHC/competitive/fluorescence; ≥ and ≤ were set here for values at or beyond the usual limits of such assays. As to conditions: source organism: Homo sapiens.
Experiment [2] has as its target HLA-B*44:02. The description is as above. As to conditions: source organism: Homo sapiens.
In experiment [3] the target is HLA-B*27:05. Put plainly: IEDB peptide-MHC binding, purified MHC/competitive/fluorescence; filed as Kd, often an IC50 or EC50 that approximates it; ≥ and ≤ were set here for values at or beyond the usual limits of such assays.
The target of experiment [4] is HLA-A*30:01. Described as above.
In experiment [5] the target is HLA-B*15:17. Described as above. To be noted: source organism: Salmonella enterica subsp. enterica serovar Typhi.
Experiment [6] deals with HLA-A*03:01. The experiment is described as above. As to conditions: source organism: Salmonella enterica subsp. enterica serovar Typhi.
Experiment [7] addresses HLA-A*02:03. The experiment is described as above. As to conditions: source organism: Salmonella enterica subsp. enterica serovar Typhi.
Experiment [8] has as its target HLA-B*07:02. The experiment is described as above. As to conditions: source organism: Salmonella enterica subsp. enterica serovar Typhi.
In experiment [9] the target is HLA-A*11:01. Described as above.
Experiment [10] deals with HLA-A*31:01. Described as above. As to conditions: source organism: Salmonella enterica subsp. enterica serovar Typhi.
Experiment [11] has as its target HLA-A*02:01. The experiment is described as above. As to conditions: source organism: Salmonella enterica subsp. enterica serovar Typhi.
In experiment [12] the target is HLA-B*48:01. The description is as above. As to conditions: source organism: Salmonella enterica subsp. enterica serovar Typhi.
Experiment [13] addresses HLA-A*02:06. Described as above. As to conditions: source organism: Salmonella enterica subsp. enterica serovar Typhi.
Experiment [14] concerns the target HLA-A*69:01. Described as above. As to conditions: source organism: Salmonella enterica subsp. enterica serovar Typhi.
Experiment [15] addresses HLA-B*38:01. The experiment is described as above. To be noted: source organism: Salmonella enterica subsp. enterica serovar Typhi.
Experiment [16] addresses HLA-A*01:01. The experiment is described as above.
Experiment [17] has as its target HLA-B*46:01. Described as above. As to conditions: source organism: Salmonella enterica subsp. enterica serovar Typhi.
Experiment [18] deals with HLA-B*58:01. The experiment is described as above.
In experiment [19] the target is HLA-B*15:09. Described as above. As to conditions: source organism: Salmonella enterica subsp. enterica serovar Typhi.
Experiment [20] addresses HLA-B*08:01. The experiment is described as above.
Experiment [21] concerns the target HLA-B*40:01. The description is as above.
The target of experiment [22] is HLA-B*15:01. Described as above. As to conditions: source organism: Salmonella enterica subsp. enterica serovar Typhi.
In experiment [23] the target is HLA-C*05:01. The experiment in a line: IEDB peptide-MHC binding, purified MHC/direct/fluorescence; filed as Kd, often an IC50 or EC50 that approximates it; ≥ and ≤ were set here for values at or beyond the usual limits of such assays. To be noted: source organism: Salmonella enterica subsp. enterica serovar Typhi str. CT18.
In experiment [24] the target is HLA-A*11:01. The experiment in a line: IEDB peptide-MHC binding, purified MHC/competitive/radioactivity; ≥ and ≤ were set here for values at or beyond the usual limits of such assays. As to conditions: source organism: Rhinovirus C.
Experiment [25] concerns the target HLA-A*66:01. Put plainly: IEDB peptide-MHC binding, purified MHC/competitive/fluorescence; filed as Kd, often an IC50 or EC50 that approximates it; ≥ and ≤ were set here for values at or beyond the usual limits of such assays. As to conditions: source organism: Mycobacterium tuberculosis variant bovis BCG str. Pasteur 1173P2.
Experiment [26] concerns the target HLA-B*14:02. The experiment is described as above. To be noted: source organism: Mycobacterium tuberculosis variant bovis BCG str. Pasteur 1173P2.
Experiment [27] deals with HLA-B*53:01. The experiment is described as above. To be noted: source organism: Mycobacterium tuberculosis variant bovis BCG str. Pasteur 1173P2.
Experiment [28] deals with HLA-A*23:01. The experiment is described as above. As to conditions: source organism: Mycobacterium tuberculosis variant bovis BCG str. Pasteur 1173P2.
Experiment [29] deals with HLA-B*44:02. The experiment is described as above. To be noted: source organism: Mycobacterium tuberculosis variant bovis BCG str. Pasteur 1173P2.
Experiment [30] addresses HLA-A*30:02. The experiment is described as above. As to conditions: source organism: Mycobacterium tuberculosis variant bovis BCG str. Pasteur 1173P2.
Experiment [31] deals with HLA-A*29:02. The experiment in a line: IEDB peptide-MHC binding, purified MHC/direct/fluorescence; filed as Kd, often an IC50 or EC50 that approximates it; ≥ and ≤ were set here for values at or beyond the usual limits of such assays. As to conditions: source organism: Mycobacterium tuberculosis str. Haarlem.
For experiment [32], the target named is HLA-B*27:03. Described as above. To be noted: source organism: Mycobacterium tuberculosis str. Haarlem.
For experiment [33], the target named is HLA-A*03:01. The description is as above. As to conditions: source organism: Mycobacterium tuberculosis str. Haarlem.
The target in experiment [34] is HLA-A*02:12. The experiment is described as above. To be noted: source organism: Mycobacterium tuberculosis str. Haarlem.
Experiment [35] addresses HLA-A*02:01. The description is as above. As to conditions: source organism: Mycobacterium tuberculosis str. Haarlem.
In experiment [36] the target is HLA-A*02:06. The experiment is described as above. To be noted: source organism: Mycobacterium tuberculosis str. Haarlem.
The target of experiment [37] is HLA-B*39:01. The experiment is described as above. To be noted: source organism: Mycobacterium tuberculosis str. Haarlem.
For experiment [38], the target named is HLA-B*51:01. The experiment is described as above. To be noted: source organism: Mycobacterium tuberculosis str. Haarlem.
Experiment [39] addresses HLA-A*24:03. The experiment is described as above. To be noted: source organism: Mycobacterium tuberculosis str. Haarlem.
The target of experiment [40] is HLA-B*18:01. The description is as above. As to conditions: source organism: Mycobacterium tuberculosis str. Haarlem.
The target of experiment [41] is HLA-A*26:01. The experiment is described as above. To be noted: source organism: Mycobacterium tuberculosis str. Haarlem.
Experiment [42] addresses HLA-B*46:01. The description is as above. To be noted: source organism: Mycobacterium tuberculosis str. Haarlem.
Experiment [43] has as its target HLA-B*57:01. Described as above. To be noted: source organism: Mycobacterium tuberculosis str. Haarlem.
Setting [44] is: source organism: Salmonella enterica subsp. enterica serovar Typhi.
[45] abbreviates: source organism: Mycobacterium tuberculosis variant bovis BCG str. Pasteur 1173P2.

In the case of FYYNAFHW, the IC50 is 2610 nM in experiment [1] and at least 20 µM in experiment [2].
In the case of LSEEANWAF, the equilibrium dissociation constant (Kd) in experiment [3] (setting [44]) is at least 20 µM; in experiment [4] (setting [44]) it was at least 20 µM; in [5] it was 23.2 nM; in experiment [6] it was at least 20 µM; in [7] it was at least 20 µM; in [8], at least 20 µM. The dissociation constant (Kd) in experiment [9] (setting [44]) was at least 20 µM; in experiment [10], at least 20 µM; in [11] it was at least 20 µM; in [12], at least 20 µM; in experiment [13], 51.7 nM; in [14] it was at least 20 µM. Further, the Kd was at least 20 µM in experiment [15]; 42.3 nM in [16] (setting [44]); at least 20 µM in experiment [17]; 498 nM in [18] (setting [44]); at least 20 µM in [19]; at least 20 µM in experiment [20] (setting [44]). Also, the Kd in [21] (setting [44]) was at least 20 µM; in experiment [22] it was 947 nM; in experiment [23], 5 nM.
As to KYFNINYYK, the half-inhibitory concentration (IC50) in experiment [24] is 200 nM.
For the sequence RVACRDVEV, the dissociation constant (Kd) in experiment [3] (setting [45]) is at least 5 µM; in experiment [4] (setting [45]) it was at least 5 µM; in [9] (setting [45]), at least 5 µM; in experiment [25], at least 5 µM; in [26], 3000 nM; in [27], at least 5 µM. The dissociation constant Kd in experiment [28] is at least 5 µM; in [29], at least 5 µM; in experiment [16] (setting [45]) it was at least 5000 nM; in [18] (setting [45]), at least 5000 nM; in [20] (setting [45]) it was at least 5 µM; in experiment [21] (setting [45]) it was at least 5 µM. For the same sequence, the Kd in [30] was at least 5 µM; in [31], at least 20 µM; in experiment [32] it was at least 20 µM; in experiment [33], at least 20 µM; in experiment [34] it was 32 nM; in experiment [35] it was 254 nM. The dissociation constant (Kd) in experiment [36] was 2 nM; in experiment [37], at least 20 µM; in experiment [38] it was at least 20 µM; in experiment [39] it was at least 20 µM; in experiment [40] it was at least 20 µM; in experiment [41], at least 20 µM. The Kd in experiment [42] and in [43] was at least 20 µM each time.

A word on the IC50: it is the midpoint of a concentration-inhibition curve. As usually defined, the Kd is the concentration at which binding is half-saturated.
